The results in this text go back to PMC6754456, “A processive endoglucanase with multi-substrate specificity is characterized from porcine gut microbiota” (Scientific Reports, 2019).

The data set deals with O=[N+]([O-])c1ccc(O[C@@H]2O[C@H](CO)[C@@H](O[C@@H]3O[C@H](CO)[C@@H](O)[C@H](O)[C@H]3O)[C@H](O)[C@H]2O)cc1. As to the kind of experiment: purified protein. To be noted: 100 mM MES pH 6.0, 50 °C, 10 min.

Consider p4818Cel5_2A (uncultured bacterium), for which the Km was determined as 1200 ± 100 µM, the kcat stood at 1.63 ± 0.0583 s⁻¹ and the kcat/Km was 1350 M⁻¹ s⁻¹.

One may read the Km as the substrate concentration at which the rate is half of its maximum. For orientation: kcat means the maximal rate divided by the concentration of active sites. In general, kcat/Km refers to the turnover number divided by the Michaelis constant.
